Holding throughout (assay): SPR
What all share (conditions): both partners purified

One experiment has as its target T1, SARS-CoV-1 Urbani RBD (SARS-CoV-1 Urbani).
T1 construct: source: Expi293F, purified (cobalt IMAC, SEC)

In experiment [1] the target is T2, SARS-CoV-2 Wuhan-Hu-1 RBD (SARS-CoV-2, UniProt P0DTC2).
T2 construct: source: Expi293F, purified (cobalt IMAC, SEC)

The next experiment deals with T3, WIV1 RBD (Bat SARS-like coronavirus WIV1).
T3 construct: source: Expi293F, purified (cobalt IMAC, SEC)

In another experiment the target is T4, SARS-CoV-1 (Urbani) RBD (SARS-CoV-1 Urbani).
T4 construct: source: Expi293F, purified (cobalt IMAC, SEC)

As usually defined, the Kd is the concentration at which binding is half-saturated. For orientation: koff means the first-order rate constant of dissociation. For orientation: kon means a measure of how fast the partners come together. The low end stands for slow association, the high end for fast association.

B1: VIR-7229 Fab (obtained by fragmentation of the IgG) (Fab, V domains shown)
VH: EVQLVESGGSVVQPGRALRLSCAASGITFSSFGMYWVRQAPGKGLEWLGYIAYDGSDTYYADSVKGRFTISRDNSKNTLYLQMNSLRIEDTAVYYCAKDYYPLLSYYYGLDVWGQGTTVTVSS
VL: QSVLTQPRSVSGSPGQSVTISCTGTSSDVGAYNYVSWYQQHPGKAPKFMIYDVDQRPSGVPDRFSGSKSGNTASLIISGLQAEDEADYYCSSYAGSYIWVFGGGTQLTVL
Turning to B1, in the experiment with SARS-CoV-1 Urbani RBD, the binding result is listed as “binds”.

B2: VIR-7229 Fab fragment (Fab, V domains shown)
VH: EVQLVESGGSVVQPGRALRLSCAASGITFSSFGMYWVRQAPGKGLEWLGYIAYDGSDTYYADSVKGRFTISRDNSKNTLYLQMNSLRIEDTAVYYCAKDYYPLLSYYYGLDVWGQGTTVTVSS
VL: QSVLTQPRSVSGSPGQSVTISCTGTSSDVGAYNYVSWYQQHPGKAPKFMIYDVDQRPSGVPDRFSGSKSGNTASLIISGLQAEDEADYYCSSYAGSYIWVFGGGTQLTVL
notes: source: ExpiCHO (IgG1); Fab by fragmentation of the IgG with the FabLACTICA Fab kit
Consider B2, for which, in experiment [1], the Kd amounted to 0.185 nM, the koff stood at 3.67e-05 s⁻¹ and the kon is 199000 M⁻¹ s⁻¹. In the experiment with WIV1 RBD, this molecule gave a dissociation constant (Kd) of 7.85 nM, a koff of 0.00304 s⁻¹ and a kon of 387000 M⁻¹ s⁻¹. In the experiment with SARS-CoV-1 (Urbani) RBD, this molecule returned an equilibrium dissociation constant (Kd) of 2.46 nM, a koff of 0.000912 s⁻¹ and a kon of 375000 M⁻¹ s⁻¹.

(Values after PMC11645210 (Cell, 2024).)
